The chains are these.
B1: purified CHO-derived recombinant human IL-7 (highly glycosylated / hyperglycosylated hIL-7) (ligand)
chain: DCDIEGKDGKQYESVLMVSIDQLLDSMKEIGSNCLNNEFNFFKRHICDANKEGMFLFRAARKLRQFLKMNSTGDFDLHLLKVSEGTTILLNCTGQVKGRKPAALGEAQPTKSLEENKSLKEQKKLNDLCFLKRLLQEIKTCWNKILMGTKEH
modifications: complex N-linked oligosaccharides at Asn 70, 91 and 116; O-glycan at Thr 110; batch is a mixture of fully and partially glycosylated proteins
notes: also called CHO-derived hIL-7; purified IL-7 protein

Holding throughout (experiment): lectin-coated plate ELISA; bound IL-7 shown by biotinylated anti-hIL-7 antibody and streptavidin-peroxidase
The target of assay [1] is T1, PHA.L, lectin from Phaseolus vulgaris (Phaseolus vulgaris, UniProt P05087 21-272).
T1 construct: Lectin coated on the plate
T1 sequence (looked up): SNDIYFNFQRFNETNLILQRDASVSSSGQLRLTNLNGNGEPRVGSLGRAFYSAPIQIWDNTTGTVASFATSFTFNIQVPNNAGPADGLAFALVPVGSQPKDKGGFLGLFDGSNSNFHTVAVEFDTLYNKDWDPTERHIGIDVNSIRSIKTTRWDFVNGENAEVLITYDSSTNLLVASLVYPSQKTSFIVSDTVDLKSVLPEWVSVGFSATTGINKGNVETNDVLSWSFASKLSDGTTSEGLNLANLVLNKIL
As to the method:
(§1) An array of lectins having affinity for N- and O-glycan structures was selected and used to coat 96 well microplates. Identical amounts of recombinant purified IL-7 preparations were incubated into lectin coated microplate wells. During this step, according to the affinity of a given lectin to the glycan decoration of IL-7, different amount of IL-7 were kept bound to the lectin. Revelation was conducted by incubating an IL-7 specific antibody coupled to Biotin.
(§2) Eight different lectins were used to characterize the IL-7 purified samples. Each lectin specifically recognizes sugar moieties.

For assay [2], the target named is T2, UEA.I, lectin from Ulex europeus (Ulex europeus, UniProt P22972 1-243).
T2 construct: Lectin coated on the plate
T2 sequence (looked up): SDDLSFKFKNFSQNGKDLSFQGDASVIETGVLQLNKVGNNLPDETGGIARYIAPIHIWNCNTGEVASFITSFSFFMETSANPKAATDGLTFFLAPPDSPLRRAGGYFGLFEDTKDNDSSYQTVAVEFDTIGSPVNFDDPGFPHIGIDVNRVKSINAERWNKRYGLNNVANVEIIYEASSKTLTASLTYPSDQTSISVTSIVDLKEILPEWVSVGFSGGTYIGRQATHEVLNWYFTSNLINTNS
As to the method:
as §1, §2

For assay [3], the target named is B1. As to the method:
as §1, §2

The values that follow come from patent US20080206190A1 (CYTHERIS, published 2008).

B1: the binding result in assay [1] and in assay [2] was “binds” throughout.

B2: ABA, lectin from Agaricus bisporus (other, UniProt Q00022 2-143, looked up)
chain: TYTISIRVYQTTPKGFFRPVERTNWKYANGGTWDEVRGEYVLTMGGSGTSGSLRFVSSDTDESFVATFGVHNYKRWCDIVTNLTNEQTALVINQEYYGVPIRDQARENQLTSYNVANAKGRRFAIEYTVTEGDNLKANLIIG
notes: Lectin coated on the plate
As for B2, the binding result in assay [3] is recorded as “binds”.
